Reference: US20230103631A1, “PEPTIDES AS SELECTIVE GIP RECEPTOR AGONISTS” (Sanofi, priority 2020, published 2023)
*1 amine or outer side, *2 acyl side, *3 side chain or, on linkers, in order; H or OH if unused. Where no end group is shown, it is not given here. Side-chain parts run from the residue outwards. [ ]: non-standard residue; d: D form. The star is where a group is joined. C20 diacid = O=C(O)CCCCCCCCCCCCCCCCCCC(=O)*; C18 diacid = O=C(O)CCCCCCCCCCCCCCCCC(=O)*; γGlu = O=C(O)[C@H](CCC(=O)[*:2])N[*:1]; AEEA = NCCOCCOCC(=O)O; Aib = CC(C)(N)C(=O)O

B1: SEQ ID NO: 10 (peptide)
peptide: Y[Aib]EGTFISDLSI[Aib]K([AEEA-AEEA-γGlu-C20 diacid])DRIHQEEFIEWLLAQGPSSGAPPPS-NH2
modifications: N-terminus assumed
SMILES: CC[C@H](C)[C@H](NC(=O)[C@H](Cc1ccccc1)NC(=O)[C@H](CCC(=O)O)NC(=O)[C@H](CCC(=O)O)NC(=O)[C@H](CCC(N)=O)NC(=O)[C@H](Cc1c[nH]cn1)NC(=O)[C@@H](NC(=O)[C@H](CCCNC(=N)N)NC(=O)[C@H](CC(=O)O)NC(=O)[C@H](CCCCNC(=O)COCCOCCNC(=O)COCCOCCNC(=O)CC[C@H](NC(=O)CCCCCCCCCCCCCCCCCCC(=O)O)C(=O)O)NC(=O)C(C)(C)NC(=O)[C@@H](NC(=O)[C@H](CO)NC(=O)[C@H](CC(C)C)NC(=O)[C@H](CC(=O)O)NC(=O)[C@H](CO)NC(=O)[C@@H](NC(=O)[C@H](Cc1ccccc1)NC(=O)[C@@H](NC(=O)CNC(=O)[C@H](CCC(=O)O)NC(=O)C(C)(C)NC(=O)[C@@H](N)Cc1ccc(O)cc1)[C@@H](C)O)[C@@H](C)CC)[C@@H](C)CC)[C@@H](C)CC)C(=O)N[C@@H](CCC(=O)O)C(=O)N[C@@H](Cc1c[nH]c2ccccc12)C(=O)N[C@@H](CC(C)C)C(=O)N[C@@H](CC(C)C)C(=O)N[C@@H](C)C(=O)N[C@@H](CCC(N)=O)C(=O)NCC(=O)N1CCC[C@H]1C(=O)N[C@@H](CO)C(=O)N[C@@H](CO)C(=O)NCC(=O)N[C@@H](C)C(=O)N1CCC[C@H]1C(=O)N1CCC[C@H]1C(=O)N1CCC[C@H]1C(=O)N[C@@H](CO)C(N)=O
notes: Exendin-4 derived synthetic lipidated peptide of formula I
B2: SEQ ID NO: 11 (peptide)
peptide: Y[Aib]EGTFISDLSI[Aib]K([AEEA-AEEA-γGlu-C18 diacid])DRIHQEEFIEWLLAQGPSSGAPPPS-OH
modifications: N-terminus assumed
SMILES: CC[C@H](C)[C@H](NC(=O)[C@H](Cc1ccccc1)NC(=O)[C@H](CCC(=O)O)NC(=O)[C@H](CCC(=O)O)NC(=O)[C@H](CCC(N)=O)NC(=O)[C@H](Cc1c[nH]cn1)NC(=O)[C@@H](NC(=O)[C@H](CCCNC(=N)N)NC(=O)[C@H](CC(=O)O)NC(=O)[C@H](CCCCNC(=O)COCCOCCNC(=O)COCCOCCNC(=O)CC[C@H](NC(=O)CCCCCCCCCCCCCCCCC(=O)O)C(=O)O)NC(=O)C(C)(C)NC(=O)[C@@H](NC(=O)[C@H](CO)NC(=O)[C@H](CC(C)C)NC(=O)[C@H](CC(=O)O)NC(=O)[C@H](CO)NC(=O)[C@@H](NC(=O)[C@H](Cc1ccccc1)NC(=O)[C@@H](NC(=O)CNC(=O)[C@H](CCC(=O)O)NC(=O)C(C)(C)NC(=O)[C@@H](N)Cc1ccc(O)cc1)[C@@H](C)O)[C@@H](C)CC)[C@@H](C)CC)[C@@H](C)CC)C(=O)N[C@@H](CCC(=O)O)C(=O)N[C@@H](Cc1c[nH]c2ccccc12)C(=O)N[C@@H](CC(C)C)C(=O)N[C@@H](CC(C)C)C(=O)N[C@@H](C)C(=O)N[C@@H](CCC(N)=O)C(=O)NCC(=O)N1CCC[C@H]1C(=O)N[C@@H](CO)C(=O)N[C@@H](CO)C(=O)NCC(=O)N[C@@H](C)C(=O)N1CCC[C@H]1C(=O)N1CCC[C@H]1C(=O)N1CCC[C@H]1C(=O)N[C@@H](CO)C(=O)O
notes: as for B1

Legend:
human GIP receptor [1] = biological target: T1, human GIP receptor (human, UniProt P48546 22-466); test: cell-based or functional assay
T1 sequence (looked up): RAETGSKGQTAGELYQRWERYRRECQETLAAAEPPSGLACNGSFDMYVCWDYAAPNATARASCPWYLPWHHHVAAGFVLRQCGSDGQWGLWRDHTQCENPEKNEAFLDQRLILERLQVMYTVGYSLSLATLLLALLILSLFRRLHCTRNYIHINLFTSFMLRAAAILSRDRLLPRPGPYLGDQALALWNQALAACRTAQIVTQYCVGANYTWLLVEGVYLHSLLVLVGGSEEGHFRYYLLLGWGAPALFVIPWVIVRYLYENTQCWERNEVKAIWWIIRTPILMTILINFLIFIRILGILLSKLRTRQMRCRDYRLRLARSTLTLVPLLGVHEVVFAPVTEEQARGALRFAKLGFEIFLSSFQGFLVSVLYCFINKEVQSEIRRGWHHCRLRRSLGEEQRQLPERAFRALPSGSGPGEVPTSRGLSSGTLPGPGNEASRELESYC

human GLP-1 receptor [2] = biological target: T2, human GLP-1 receptor (human, UniProt P43220 24-463); test: cell-based or functional assay
human GIP receptor [3] = biological target: T1, human GIP receptor; test: cell-based or functional assay; remark: listed apart in the source
human GLP-1 receptor [4] = biological target: T2, human GLP-1 receptor; test: displacement of [125I]GLP-1 from hGLP-1R HEK-293 membranes, SPA

| Binder | hGIPR EC50, cAMP in human adipocytes (human GIP receptor [1]) [nM] | hGIPR Emax, cAMP in human adipocytes (human GIP receptor [1]) [%] | EC50 hGLP-1R 0% HSA, cAMP in HEK-293 cells (human GLP-1 receptor [2]) [nM] | EC50 hGIPR 0% HSA, cAMP in HEK-293 cells (human GIP receptor [3]) [nM] | EC50 hGIPR 0.1% HSA, cAMP in HEK-293 cells (human GIP receptor [3]) [nM] | IC50 (human GLP-1 receptor [4]) [nM] |
| --- | --- | --- | --- | --- | --- | --- |
| B1 | 0.4 | 127 | > 10 | 0.00025 | 0.00537 | 223 |
| B2 | 1 | 122 | > 10 | 0.00019 | 0.00224 | 288 |
